Results on one molecule are retold here after patent publication US20240368260A1 (INSTITUT NATIONAL DE LA SANTE ET DE LA RECHERCHE MEDICALE, published 2024).

Assay [1] deals with T1, recombinant human βIG-H3 (human, UniProt Q15582 24-683).
T1 construct: Bought recombinant protein; also called rhβIG-H3; rhbIG-H3
T1 sequence (looked up): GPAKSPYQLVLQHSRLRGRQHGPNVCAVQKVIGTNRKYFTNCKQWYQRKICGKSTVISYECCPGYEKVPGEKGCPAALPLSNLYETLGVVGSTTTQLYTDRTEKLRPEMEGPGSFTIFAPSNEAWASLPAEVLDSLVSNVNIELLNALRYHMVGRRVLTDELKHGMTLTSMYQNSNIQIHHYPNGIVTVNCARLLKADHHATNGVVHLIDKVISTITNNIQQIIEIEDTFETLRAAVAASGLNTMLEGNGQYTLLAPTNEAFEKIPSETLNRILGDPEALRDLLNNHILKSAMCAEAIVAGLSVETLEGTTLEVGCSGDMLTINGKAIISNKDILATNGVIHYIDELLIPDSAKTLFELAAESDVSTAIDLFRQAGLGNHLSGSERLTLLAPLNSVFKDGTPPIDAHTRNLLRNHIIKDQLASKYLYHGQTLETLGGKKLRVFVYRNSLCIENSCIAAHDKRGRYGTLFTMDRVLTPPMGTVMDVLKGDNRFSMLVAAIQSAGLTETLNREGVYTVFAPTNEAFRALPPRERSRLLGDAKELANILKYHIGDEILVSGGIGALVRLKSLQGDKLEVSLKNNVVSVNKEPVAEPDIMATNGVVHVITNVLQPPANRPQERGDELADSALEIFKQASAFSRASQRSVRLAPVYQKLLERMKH
The assay can be described thus: SPR single cycle kinetics, mAb captured via anti-human IgG (Fc) on CM5, hβIG-H3 5-100 nM as analyte, 1:1 model; SCK2 Fc4. The procedure:
(§1) Anti-Human IgG (Fc) antibody is chemically grafted on a CM5 sensorchip using amine coupling according to the Cytivia 22064888AF notice. Briefly, surface is first activated by injection of a NHS-EDC mixture. Then, several injections (3 on the 10 available on the kit) of Anti-Human IgG (25 μg/ml in immobilization buffer) adjusting the contact time are performed. Finally, the surfaces are deactivated with ethanolamine 1M pH 8.5.
(§2) A negative control Ab is immobilized on sensor flowcell 1 (Fc 1) and positive control (chimeric 18B3 mAB) on Fc 2. 18B3 variants Abs are immobilized on Fc3 and Fc4:
(§3) Injection of increasing concentrations (5; 10; 25; 50; 100 nM) of antigen (hβIG-H3) during 180 s is performed on each flowcell. Short dissociations are performed in RB between each antigen concentration. After injection of the highest antigen concentration (100 nM), a dissociation in RB is recorded during 3600 s. [0348] Three similar cycles with five injections of RB are carried out before the cycle of Antigen in order to perform double subtraction procedure (Blank run). [0349] Three similar cycles with five injection of RB and a dissociation time of 600 s are performed before the blank runs in order to stabilize the system (Startup run).

In assay [2] the target is T1, recombinant human βIG-H3. The experiment in a line: SPR single cycle kinetics, mAb captured via anti-human IgG (Fc) on CM5, hβIG-H3 5-100 nM as analyte, 1:1 model; Fc4, first of two runs (run label misplaced in print). The procedure: as §1, §2, §3
Assay [3] addresses T1, recombinant human βIG-H3. The experiment in a line: direct ELISA on coated rhβIG-H3, anti-human IgG-HRP.

B1: 18B3 H330-V1.2/L228-V1 (antibody, human IgG1, kappa, V domains shown)
VH: QVQLVESGGGVVQPGGSLRLSCAASGFTFSDYYMYWVRQAPGKGLEWVATISDGGIYKYYADSVKGRFTISRDSSKNTLYLQMNSLRAEDTAVYYCVRGWDRYDSWFASWGQGTTVTVSS
VL: DIVMTQSPLSLPVTPGEPASMSCRSSQSLLYSSNQKNYLAWYLQKPGQSPQLLIYWGSTRESGVPDRFSGSGSGTDFTLKISRVEAEDVGVYYCQQYYRYPYTFGQGTKLEIKR
notes: also called H-330/L-228 V1.2
A word on the Kd: it is the free concentration of one partner at which half of the binding sites on the other are occupied at equilibrium, for simple one-to-one binding. For orientation: koff means the rate constant with which the complex falls apart. As a reminder, the kon is a measure of how fast the partners come together. In the case of B1, in assay [1], the Kd came out at 171 pM, the off-rate (koff) worked out at 0.000478 s⁻¹ and the kon was 2.79e+06 M⁻¹ s⁻¹. Further, in assay [2], the Kd came to 120 pM, the koff worked out at 0.000559 s⁻¹ and the on-rate (kon) was 4.66e+06 M⁻¹ s⁻¹. The “ELISA Titer” value in assay [3] is 0.0036 µg/mL.
